Measurements reported in US20240342207, “MODIFIED NUCLEIC ACID COMPOSITIONS AND ASSOCIATED METHODS FOR TREATMENT OF PHENYLKETONURIA” (BOARD OF REGENTS, THE UNIVERSITY OF TEXAS SYSTEM, published 2024).

Key:
Assay in all cases: EMSA; one of 13 of 17 binding mutants; affinity not decreased
Conditions in all cases: tags: His-tag, E. coli; stem-loop
PAH P281L = biological target: T1, PAH P281L (Homo sapiens, UniProt P00439 P00439:1-452, P281L)
T1 sequence: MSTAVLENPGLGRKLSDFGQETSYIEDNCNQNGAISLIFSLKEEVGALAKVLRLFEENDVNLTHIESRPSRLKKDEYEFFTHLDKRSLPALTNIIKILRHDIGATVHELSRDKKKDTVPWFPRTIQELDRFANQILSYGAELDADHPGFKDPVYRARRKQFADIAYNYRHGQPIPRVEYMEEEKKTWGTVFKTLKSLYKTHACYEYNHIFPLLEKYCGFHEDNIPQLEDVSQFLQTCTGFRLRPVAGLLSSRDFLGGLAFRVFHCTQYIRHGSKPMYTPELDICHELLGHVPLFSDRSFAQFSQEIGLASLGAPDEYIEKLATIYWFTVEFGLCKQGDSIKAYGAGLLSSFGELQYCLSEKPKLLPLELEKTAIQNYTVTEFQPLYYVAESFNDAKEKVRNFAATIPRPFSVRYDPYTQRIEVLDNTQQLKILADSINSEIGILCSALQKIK

PAH I283N = biological target: T2, PAH I283N (Homo sapiens, UniProt P00439 P00439:1-452, I283N)
T2 sequence: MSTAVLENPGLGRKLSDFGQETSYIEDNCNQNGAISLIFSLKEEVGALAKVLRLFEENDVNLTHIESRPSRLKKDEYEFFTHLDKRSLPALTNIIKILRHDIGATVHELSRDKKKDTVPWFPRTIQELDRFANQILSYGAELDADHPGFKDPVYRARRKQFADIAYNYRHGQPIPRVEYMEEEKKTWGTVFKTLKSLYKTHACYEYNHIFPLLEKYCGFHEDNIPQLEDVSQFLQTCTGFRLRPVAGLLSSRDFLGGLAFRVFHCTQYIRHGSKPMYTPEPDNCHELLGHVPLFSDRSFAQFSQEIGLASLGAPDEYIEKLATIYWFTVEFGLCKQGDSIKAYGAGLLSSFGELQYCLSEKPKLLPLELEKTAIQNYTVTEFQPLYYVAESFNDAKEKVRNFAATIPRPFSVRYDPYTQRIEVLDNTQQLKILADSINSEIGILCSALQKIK

PAH I65S = biological target: T3, PAH I65S (Homo sapiens, UniProt P00439 P00439:1-452, I65S)
T3 sequence: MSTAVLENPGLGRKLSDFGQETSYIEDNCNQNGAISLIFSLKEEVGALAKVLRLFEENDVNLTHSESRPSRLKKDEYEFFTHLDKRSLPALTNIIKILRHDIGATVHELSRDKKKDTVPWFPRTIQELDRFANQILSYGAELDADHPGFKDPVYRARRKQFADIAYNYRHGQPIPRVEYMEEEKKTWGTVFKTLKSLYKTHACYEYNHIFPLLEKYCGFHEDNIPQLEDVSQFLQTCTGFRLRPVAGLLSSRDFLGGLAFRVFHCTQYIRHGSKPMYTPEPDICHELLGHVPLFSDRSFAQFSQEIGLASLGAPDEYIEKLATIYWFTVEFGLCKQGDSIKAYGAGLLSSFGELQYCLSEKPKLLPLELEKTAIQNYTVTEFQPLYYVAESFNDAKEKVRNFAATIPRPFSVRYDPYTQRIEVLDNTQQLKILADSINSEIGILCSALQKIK

PAH A300S = biological target: T4, PAH A300S (Homo sapiens, UniProt P00439 P00439:1-452, A300S)
T4 sequence: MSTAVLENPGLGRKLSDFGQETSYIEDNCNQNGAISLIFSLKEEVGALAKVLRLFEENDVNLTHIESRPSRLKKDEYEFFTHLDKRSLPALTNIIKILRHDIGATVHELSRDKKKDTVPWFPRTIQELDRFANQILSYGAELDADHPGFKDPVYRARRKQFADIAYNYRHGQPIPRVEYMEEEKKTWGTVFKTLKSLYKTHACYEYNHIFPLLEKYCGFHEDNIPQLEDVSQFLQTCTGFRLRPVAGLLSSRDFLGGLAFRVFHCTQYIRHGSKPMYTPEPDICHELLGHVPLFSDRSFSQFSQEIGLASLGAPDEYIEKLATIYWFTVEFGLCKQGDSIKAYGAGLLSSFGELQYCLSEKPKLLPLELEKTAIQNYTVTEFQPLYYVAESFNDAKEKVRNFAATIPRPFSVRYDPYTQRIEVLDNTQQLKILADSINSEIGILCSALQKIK

Measured: binding result

B1: HULC 181-201 mimic (ssRNA)
RNA: CAAAAUGCAUAUGUAUCUUUG
binds: all assays above
